PMC5609902 (Oncotarget, 2017)

What was measured:
JRFL rgp120 [1] = target: T1, JRFL rgp120 (HIV-1 JRFL (clade B), UniProt Q75760, strain); experiment: SPR; BIACORE T200; rgp120 immobilised on CM5 chip by amine coupling (20 μg/ml); antibody in two-fold dilutions injected at 30 μl/min for 3 min; 1:1 Langmuir model, global fit; conditions: both partners purified
T1 construct: gp120, the surface subunit of the Env glycoprotein, HIV-1 isolate JRFL (clade B); recombinant; also called JRFL gp120; source: bought: Immune Technology Corp or Enzyme LLC

CN54 rgp120 = target: T2, CN54 rgp120 (HIV-1 isolate CN54 (97CN54), CRF07_BC, UniProt Q994N8, strain); experiment: as above; conditions: both partners purified
T2 construct: gp120, the surface subunit of the Env glycoprotein, HIV-1 isolate CN54 (CRF07_BC); recombinant; also called CRF07_BC (CN54)-derived rgp120; CN54 gp120; source: bought: Immune Technology Corp or Enzyme LLC

rgp120 (R2) = target: T3, rgp120 (R2) (HIV-1 R2); experiment: ELISA; direct ELISA; 1 μg/ml rgp120 or rgp140 coated in 0.1 M carbonate buffer pH 9.6, 4°C overnight; antibody 1 h at 37°C; detected with HRP goat anti-human IgG; conditions: both partners purified
T3 construct: gp120, the surface subunit of the Env glycoprotein, HIV-1 isolate R2; recombinant; also called native rgp120; coated rgp120; source: bought: Immune Technology Corp or Enzyme LLC

JRFL rgp120 [2] = target: T1, JRFL rgp120; experiment: cell-based or functional assay
[3] = target: Env glycoprotein (gp160) of HIV-1 NL4-3, wild type (HIV-1 NL4-3 (clade B), UniProt Q6BC06, strain); experiment: cell-based or functional assay

B1: Y498 IgG1 (antibody, V domains shown)
VH: KVQLVQSGTELKKPGASGKVSCKASGYTFNSNGLNWVRQAPGQGLEWVGWISGHSDETKHAQNFQGRLTLTTDTSTNTAYMELRSLRSDDTAVYYCARSLLRSLERLMGGTDAFDIWGQGTLVTVSS
VL: not shown
notes: as the VH of m1; as the VL of m1; Full-length IgG1, kappa light chain, made by recloning the Fab chains in the pDR12 vector; also called whole Y498 IgG1; source: 293T, transient transfection, purified from the culture medium (protein A/G sepharose)
- Kd (JRFL rgp120 [1]): 0.86 nM
- Kd (CN54 rgp120): 0.46 nM
- binding result (rgp120 (R2)): binds
- neutralisation of the pseudovirus with JRFL Env (Env on the virus, not the rgp120), single cycle infection of TZM-bl cells, IC50 (JRFL rgp120 [2]): > 50 µg/mL
- neutralisation of the pseudovirus with NL4-3 Env, single cycle infection of TZM-bl cells, IC50 [3]: 0.61 µg/mL
